Measurements as given in patent US20260167731A1 (DOMAIN THERAPEUTICS, published 2026).
Values joined by “and” are separate entries in the source; they are usually repeats but may differ in a detail not shown here. Identical values can stand only once.

Legend:
[1] = target: pm8, modified CCR8 related peptide (human, sulfated tyrosines at Y15, Y16 and Y17); assay: ELISA on coated CCR8 peptide (500 ng/mL), OD [cont.]
Protocol: (§1) The specific binding properties of antibodies were evaluated by ELISA with coated CCR8 related peptides (500 ng/mL) in carbonate/bicarbonate buffer. Different peptides were used as described in Table 1 (see Example 1). Each anti-CCR8 mAb was tested at 1 μg/mL then diluted at 1/10. After an incubation at room temperature during 90 min, unbound mAbs were removed by washings. […] After washings, 3,3′,5,5′-tetramethylbenzidine (TMB) (Interchim, Montlugon, France) was added for 15 min. Then the optical density (OD) was determined by using a multiplate reader (Tecan, Lyon, France) and correlated with mAb reactivity on the panel of coated peptides.

[2] = target: pm5, modified CCR8 related peptide (human, sulfated tyrosines at Y15 and Y17); assay: as above
pm5, modified CCR8 related peptide (human, sulfated tyrosines at Y15 and Y17), sequence (peptide, as listed by the source): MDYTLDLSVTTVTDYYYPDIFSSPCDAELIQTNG
Protocol: as §1

[3] = target: pm3, modified CCR8 related peptide (human, sulfated tyrosine at Y17); assay: as above
pm3, modified CCR8 related peptide (human, sulfated tyrosine at Y17), sequence (peptide, as listed by the source): as above
Protocol: as §1

[4] = target: pm1, modified CCR8 related peptide (human, sulfated tyrosine at Y15); assay: as above
pm1, modified CCR8 related peptide (human, sulfated tyrosine at Y15), sequence (peptide, as listed by the source): as above
Protocol: as §1

[5] = target: pm2, modified CCR8 related peptide (human, sulfated tyrosine at Y16); assay: as above
pm2, modified CCR8 related peptide (human, sulfated tyrosine at Y16), sequence (peptide, as listed by the source): as above
Protocol: as §1

[6] = target: T1, pwt1, unmodified CCR8 related peptide (human, none (non-sulfated Y15, Y16, Y17)); assay: as above
T1 construct: First 34 amino acids of human CCR8, synthetic; also called unmodified peptide
T1 sequence (peptide, as listed by the source): as above
Protocol: as §1

[7] = target: pm4, modified CCR8 related peptide (human, sulfated tyrosines at Y15 and Y16); assay: as above
pm4, modified CCR8 related peptide (human, sulfated tyrosines at Y15 and Y16), sequence (peptide, as listed by the source): as above
Protocol: as §1

[8] = target: pm6, modified CCR8 related peptide (human, sulfated tyrosines at Y16 and Y17); assay: as above
pm6, modified CCR8 related peptide (human, sulfated tyrosines at Y16 and Y17), sequence (peptide, as listed by the source): as above
Protocol: as §1

human CCR8 [9] = target: T2, human CCR8 (human, UniProt P51685 1-355); assay: cell-based or functional assay
human CCR8 [10] = target: T2, human CCR8; assay: flow cytometry, hCCR8 transfected CHOK1 cells
Protocol: The same staining protocol was applied on human CCR8 transfected CHO cell line versus wild type CHO cell line, cutaneous T cell lymphoma HUT78 cell line and human activated T cell model.
Briefly, 1·10⁵ cells per well in a 96 well plate were incubated with a dilution of unconjugated anti-CCR8 mAb at 10 μg/mL then diluted at 1/3.33, 4 dilution points (during 30 min at 4° C.). In human activated T cells model, prior to mAb incubation, cells were first incubated with 200 nM of hCCL1 (R&D Systems, Minneapolis, MN, USA) or buffer PBS (Invitrogen by Thermofisher Scientific, Illkirch-Graffenstaden, France) supplemented by 2% Fetal Bovine Serum (Invitrogen by Thermofisher Scientific, Illkirch-Graffenstaden, France) and 2 mM EDTA (Invitrogen by Thermofisher Scientific, Illkirch-Graffenstaden, France) during 1 hour at 4° C. To determine EC50 value, 8 concentrations of anti-CCR8 mAb were tested. Unbound antibodies were washed away with PBS (Invitrogen by Thermofisher Scientific, Illkirch-Graffenstaden, France) supplemented by 2% Fetal Bovine Serum (Invitrogen by Thermofisher Scientific, Illkirch-Graffenstaden, France) and 2 mM EDTA (Invitrogen by Thermofisher Scientific, Illkirch-Graffenstaden, France). Subsequently, cells are centrifuged (5 min at 400 g) and bound antibody is detected with F(ab′)₂-Goat anti-Mouse IgG (H+L) Cross-Adsorbed Secondary Antibody, Alexa Fluor 488 (dilution 1/500) (Invitrogen by Thermofisher Scientific, Illkirch-Graffenstaden, France) or with F(ab′)₂-Goat anti-Human IgG Fc Secondary Antibody, PE (Invitrogen by Thermofisher Scientific, Illkirch-Graffenstaden, France) (dilution 1/1000) at 4° C. for 30 min. Detection reagent is washed away and cells are centrifuged (5 min at 400 g) and resuspended in 30 μL PBS. Bound detection antibody is quantified on a MacsQuant16 (Miltenyi, Gladbach, Germany) (B1 or B2 channel, 5000 events per acquisition). During the experiment, the respective isotype mAb controls (mouse IgG1, mouse IgG2a, mouse IgG2b, mouse IgG3 or human IgG1) (Biolegend, Amsterdam, The Netherlands) are included to exclude any unspecific binding events.

human CCR8 [11] = target: T2, human CCR8; assay: flow cytometry, inhibition of hCCL1-AF647 binding to hCCR8 CHO cells
Protocol: The hCCR8 transfected CHO cell line was dispatched at a density of 1·10⁵ per well in a 96-well plate. Cells were incubated for 30 min at 4° C. with or without anti-CCR8 mAb tested at 10 μg/mL then diluted at 1/3. Unbound antibodies were washed away with PBS (Gibco, Villebon-sur-Yvette, France) supplemented by 2% Fetal Bovine Serum (Invitrogen by Thermofisher Scientific, Illkirch-Graffenstaden, France) and 2 mM EDTA. […] After washing unbound ligands, CCL1 bound detection is quantified on a MacsQuant16 (Miltenyi, Gladbach, Germany) (R1 channel, 5 000 events per acquisition).
For IC₅₀ determination, a concentration response curve is performed using 8 concentrations of mAb. Curves are fitted and IC₅₀ of CCL1 binding blocking activity is calculated using the sigmoidal dose-response (variable slope) model on GraphPad Prism 9 (GraphPad Software, San Diego, CA, USA).

human CCR8 [12] = target: T2, human CCR8; assay: cell-based or functional assay; remark: listed apart in the source
human CCR8 [13] = target: T2, human CCR8; assay: cell-based or functional assay; remark: listed apart in the source
human CCR8 [14] = target: T2, human CCR8; assay: cell-based or functional assay; remark: listed apart in the source

pm8, modified CCR8 related peptide (human, sulfated tyrosines at Y15, Y16 and Y17), sequence (peptide, as listed by the source): as above

binding result [1]	binding result [2]	binding result [3]	binding result [4]	binding result [5]	binding result [6]	binding result [7]	binding result [8]	IC50, CCL1 induced hCCR8 Gi2 signaling (BRET, HEK-293) (human CCR8 [9])	% positive cells (human CCR8 [10]) [%]	MFI fold change to isotype ctrl (human CCR8 [10]) [fold]	IC50 (human CCR8 [11])	Binder	other results
binds	binds	binds	binds	binds	binds	binds	binds	0.712 µg/mL and 4.75 nM	78.9	6.36	2.22 µg/mL and 14.8 nM	anti-CCR8 mAb 2-8 (antibody, V domains shown) VH: QVQLKESGPGLVAPSQSLSITCTVSGFSLTDYGVSWIRQPPGKGPEWLGVIWGGGNTYYNSVLKSRLSISNDNSKSQVFLRMNSLQTADTAIYYCARPRRDYYALDYWGQGTSVTVAS VL: DVVMTQTPLSLPVSLGDQASISCRSSQSLVYTNGNTFLHWYLQKPGQSPKLLIYKVSNRFSGVPDRFSGSGSGTDFTLKISRVEAEDLGVYFCSQSTHVPPTFGGGTKLEIK	IC50, CCL1 induced hCCR8 Gi2 signaling (BRET) at pH 6.5 (human CCR8 [12]): 0.578 µg/ml and 3.85 nM; IC50, CCL1 induced hCCR8 Gi2 signaling (BRET) at pH 7.4 (human CCR8 [12]): 0.812 µg/ml and 5.41 nM
binds	binds	binds	binds	binds	binds	binds	binds	0.106 µg/mL and 0.706 nM	69.9	5.81	1.25 µg/mL and 8.34 nM	anti-CCR8 mAb 2-6 (antibody, V domains shown) VH: QVQLKESGPGLVAPSQSLSITCTVSGLSMNDYVVTWIRQPPGKGLEWLGVIWGGGNTYYNSDLKSRLSITKDNSKSQVFFKMSSLQTDDTAVYYCARRHRDYALDYWGQGISVTVSS VL: ENVLTQSPAIMSASPGEKVTMTCRASSSVSSSYLHWYQQKSGASPKLWIYSTSNLASGVPARFSGSGSGTSYSLTISSVEAEDAATYYCQQYSGYPYTFGGGTKLEIK	–

More lines, now with the values behind:

Binder	binding result [1]	binding result [2]	binding result [3]	binding result [4]	binding result [5]	binding result [6]	binding result [7]	binding result [8]	IC50, CCL1 induced hCCR8 Gi2 signaling (BRET, HEK-293) (human CCR8 [9])	% positive cells (human CCR8 [10]) [%]	MFI fold change to isotype ctrl (human CCR8 [10]) [fold]	IC50 (human CCR8 [11])	other results
anti-CCR8 mAb 2-5 (antibody, V domains shown) VH: EVQLQQSGPELVKPGASVKISCKTSGYTFTEYTIHWVKQSHGKSLEWVGGINPDNGNTRYDQKFKGKATLTIDKSSSTAYMELRSLTSEDSAVYYCARVARSSGSGPYAMDYWGQGTSVTVSS VL: DVVMTQTPLSLPVSLGDQASISCRCTQSLLHTNGDTYLHWYLQKPGQSPKLLIYKVSNRFSGVPDRFSGSGSGTDFTLKISRVEAEDLGVYFCSQSTHVPYTFGGGTKLEIK	binds	binds	binds	binds	binds	binds	binds	binds	0.044 µg/mL and 0.291 nM	73.7	10.3	1.15 µg/mL and 7.73 nM	–
anti-CCR8 mAb 2-7 (antibody, V domains shown) VH: QVQLKESGPGLVAPSQSLSITCTVSGFSLTDYRVSWIRQPPGKGLEWLGVIWGGRSTYYNSALKSRLSISKDNSKSQVFLKMNSLQTDDTAMYYCAKQGDGYYALDYWGQGTSVTVSS VL: DVVMTQTPLSLPVSLGDQASISCRSSQSLVHSYGNTYLHWYLQKPGQSPKLLIYKVSNRFSGVPDRFHGSGSGTDFTLKISRVEAEDLGVYFCSQSTHVPPTFGGGTKLEIK	binds	binds	binds	binds	binds	binds	binds	binds	0.552 µg/mL and 3.68 nM	57.7	3.84	2.73 µg/mL and 18.3 nM	IC50, CCL1 induced hCCR8 Gi2 signaling (BRET) at pH 6.5 (human CCR8 [12]): 0.516 µg/ml and 3.44 nM; IC50, CCL1 induced hCCR8 Gi2 signaling (BRET) at pH 7.4 (human CCR8 [12]): 0.82 µg/ml and 5.47 nM
anti-CCR8 mAb 2-9 (antibody, V domains shown) VH: QVQLQQPGSELVRPGASVKLSCKASGYTFTSYWMHWVKQRPGQGLEWIGNIWPGSASTNYDEKFKNKATLTVDTSSSTAYMQLSSLTSEDSAVYYCIRGGKGAMDYWSQGTSVTVSS VL: DVVMTQIPLSLPVSLGDQASISCRSSQSLENSYGNTYLNWYLQKPGQSPQLLIYRVSNRFSGVLDRFSGSGSGTDFTLKISRVEAEDLGVYFCLQVTHVPPTFGAGTKLELK	–	–	–	–	–	–	–	–	0.026 µg/mL and 0.172 nM	81.6	9.92	1.18 µg/mL and 7.92 nM	hCCL1 (100 nM) residual response in %, Protocol #2, mAb 0.08 µg/mL (0.53 nM) (human CCR8 [13]): 99%; hCCL1 (100 nM) residual response in %, Protocol #2, mAb 0.4 µg/mL (2.67 nM) (human CCR8 [13]): 83%; hCCL1 (100 nM) residual response in %, Protocol #2, mAb 10 µg/mL (66.7 nM) (human CCR8 [13]): 56%; hCCL1 (100 nM) residual response in %, Protocol #3, mAb 0.05 µg/mL (0.33 nM) (human CCR8 [13]): 116%; hCCL1 (100 nM) residual response in %, Protocol #3, mAb 0.5 µg/mL (3.33 nM) (human CCR8 [13]): 90%; hCCL1 (100 nM) residual response in %, Protocol #3, mAb 5 µg/mL (33.3 nM) (human CCR8 [13]): 45%
chimeric anti-CCR8 mAb 2-17 (antibody, human IgG1, kappa) heavy: not shown light: DVVMTQTPLSLPVSLGDQASISCRCTQSLLHTNGDTYLHWYLQKPGQSPKLLIYKVSNRFSGVPDRFSGSGSGTDFTLKISRVEAEDLGVYFCSQSTHVPYTFGGGTKLEIKRTVAAPSVFIFPPSDEQLKSGTASVVCLLNNFYPREAKVQWKVDNALQSGNSQESVTEQDSKDSTYSLSSTLTLSKADYEKHKVYACEVTHQGLSSPVTKSFNRGEC	–	–	–	–	–	–	–	–	–	–	–	–	ADCC % Max lysis, HUT78 targets, NK cells Donor 3 (human CCR8 [14]): 14%; ADCC % Max lysis, HUT78 targets, NK cells Donor 4 (human CCR8 [14]): 15%; ADCC EC50, HUT78 targets, NK cells Donor 3 (human CCR8 [14]): 0.793 nM; ADCC EC50, HUT78 targets, NK cells Donor 4 (human CCR8 [14]): 1.52 nM
hypofucosylated (low fucosylated) chimeric anti-CCR8 mAb 2-19 (antibody, human IgG1, kappa, hypofucosylated Fc glycan) heavy: not shown light: DVVMTQTPLSLPVSLGDQASISCRCTQSLLHTNGDTYLHWYLQKPGQSPKLLIYKVSNRFSGVPDRFSGSGSGTDFTLKISRVEAEDLGVYFCSQSTHVPYTFGGGTKLEIKRTVAAPSVFIFPPSDEQLKSGTASVVCLLNNFYPREAKVQWKVDNALQSGNSQESVTEQDSKDSTYSLSSTLTLSKADYEKHKVYACEVTHQGLSSPVTKSFNRGEC	–	–	–	–	–	–	–	–	–	–	–	–	ADCC % Max lysis, HUT78 targets, NK cells Donor 3 (human CCR8 [14]): 29%; ADCC % Max lysis, HUT78 targets, NK cells Donor 4 (human CCR8 [14]): 29%; ADCC EC50, HUT78 targets, NK cells Donor 3 (human CCR8 [14]): 0.195 nM; ADCC EC50, HUT78 targets, NK cells Donor 4 (human CCR8 [14]): 0.282 nM
